Target: T1, biotinylated CD59 (Homo sapiens, UniProt P13987)
T1 construct: Recombinant soluble human CD59 with an additional C-terminal cysteine residue
T1 sequence (P13987 26-102 limits assumed): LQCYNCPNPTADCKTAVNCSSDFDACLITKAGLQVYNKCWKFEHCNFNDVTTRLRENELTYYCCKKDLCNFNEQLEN
Experiment: mRNA-display cyclic peptide screen against CD59-biotin, NGS abundance after 6th selection round
Conditions: for Counts (raw counts for peptide sequence), Seq I: NGS sample Seq I; for Counts (raw counts for peptide sequence), Seq I / Counts (raw counts for peptide sequence), Seq II / Counts Seq I / Counts Seq II: sheet R6 (6th selection round); for Counts (raw counts for peptide sequence), Seq II: NGS sample Seq II; for Percentage of the pool, averaged across the two sequencing samples: average of Seq I and Seq II; for Percentage of the pool, averaged across the two sequencing samples / Percentage of the pool, Seq I / Percentage of the pool, Seq II / Percentage Seq I / Percentage Seq II / Percentage Average: sheet R6; for Percentage of the pool, Seq I: counts normalised by total counts of NGS sample Seq I; for Percentage of the pool, Seq II: counts normalised by total counts of NGS sample Seq II; for Percentage Seq I: counts normalised by total counts of sample Seq I; for Percentage Seq I / Percentage Seq II: percentage of the pool; for Percentage Seq II: counts normalised by total counts of sample Seq II; for Percentage Average: percentage of the pool averaged across the two sequencing samples; for Counts Seq I / Counts Seq II: raw NGS counts of peptide sequence; for Counts Seq I: sequencing sample Seq I; for Counts Seq II: sequencing sample Seq II
Procedure, shortened: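 Peptide–mRNA fusions were made by in vitro translation with a customised PURE express kit. The kit lacked release factor 1 and methionine and was supplemented with […] initiator tRNA carrying N-chloroacetyl-d-tyrosine. Thioether macrocycles were formed, then enriched and amplified over iterative rounds on CD59-biotin immobilised on streptavidin beads. NGS read counts per sequence were recorded after the 6th selection round.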

Sequence	Counts (raw counts for peptide sequence), Seq I	Counts (raw counts for peptide sequence), Seq II	Percentage of the pool, averaged across the two sequencing samples [%]	Percentage of the pool, Seq I [%]	Percentage of the pool, Seq II [%]	Percentage Seq I [%]	Percentage Seq II [%]	Percentage Average [%]	Counts Seq I	Counts Seq II
GYKNECHSFNW	40	6	0.012	0.009	0.014					
GYLNECHALYTR	63	9	0.018	0.014	0.021					
GYLNECHTLYTL						0.024	0.028	0.026	105	12
GYLNECHTLYTQ						0.034	0.051	0.043	149	22
GYLNECHTLYTR						0.629	0.645	0.637	2754	278
GYLNECWYGLS						0.101	0.081	0.091	441	35
HAFGNRSFTRG	82	5	0.015	0.019	0.012					
HAFGSRDIAYY	52	5	0.012	0.012	0.012					
HAFGSRDITYY						0.246	0.272	0.259	1078	117
HCRVRGSRNYT	38	6	0.011	0.009	0.014					
HCWARGSRNYT						0.041	0.035	0.038	180	15
HCWVRGGRNYT						0.024	0.014	0.019	104	6
HCWVRGSRDYT						0.028	0.046	0.037	122	20
HCWVRGSRNHT	54	5	0.012	0.012	0.012					
HCWVRGSRNYA						0.029	0.028	0.029	128	12
HCWVRGSRNYS	46	5	0.011	0.011	0.012					
HCWVRGSRNYT						2.570	2.548	2.559	11242	1098
HCWVRGSRSYT						0.022	0.021	0.022	97	9
HQECWARGSRE	68	5	0.014	0.016	0.012					
HSYGSSQIAYH	74	8	0.018	0.017	0.019					
HVFGDRSFTRG						0.028	0.026	0.027	124	11
HVFGNGSFTRG						0.031	0.035	0.033	137	15
HVFGNKSFTRG	63	9	0.018	0.014	0.021					

Sequence	Counts (raw counts for peptide sequence), Seq I	Counts (raw counts for peptide sequence), Seq II	Percentage of the pool, averaged across the two sequencing samples [%]	Percentage of the pool, Seq I [%]	Percentage of the pool, Seq II [%]	Percentage Seq I [%]	Percentage Seq II [%]	Percentage Average [%]	Counts Seq I	Counts Seq II
HVFGNRFFTRG						0.031	0.039	0.035	135	17
HVFGNRPFTRG	73	5	0.014	0.017	0.012					
HVFGNRSFARG	78	6	0.016	0.018	0.014					
HVFGNRSFTRG						5.324	5.834	5.579	23292	2514
HVFGNRSFTSG						0.017	0.021	0.019	73	9
HVFGNRSLTRG	93	5	0.016	0.021	0.012					
HVFGNRSSTRG	69	6	0.015	0.016	0.014					
HVFGNRSYTRG	46	7	0.013	0.011	0.016					
HVFGSRSFTRG						0.074	0.084	0.079	323	36
HVIGNRSFTRG						0.020	0.016	0.018	87	7
HVLGNRSFTRG						0.071	0.084	0.077	312	36
HVRGDAWTVLG						0.243	0.216	0.230	1065	93
HVSGNRSFTRG						0.024	0.035	0.029	104	15
HVYGNRSFTRG	97	5	0.017	0.022	0.012					
IAFGSRFHSYQ						0.584	0.647	0.616	2554	279
IALGDRTFSFG						0.366	0.334	0.350	1603	144
IARGDRNHQFF	42	6	0.012	0.010	0.014					
IARGDRNHQFY						0.296	0.251	0.273	1296	108
IARGDRTFSFG						0.013	0.035	0.024	57	15
IARGDWNHQFF	56	3	0.010	0.013	0.007					
IARGDWNHQFY						0.514	0.450	0.482	2249	194
IARGGRHFSSG	46	4	0.010	0.011	0.009					

Source: publication PMC12207370, “Macrocyclic Peptide Probes for Immunomodulatory Protein CD59: Potent Modulators of Bacterial Toxin Activity and Antibody‐Dependent Cytotoxicity” (Angewandte Chemie (International Ed. in English), 2025)
